Laboratory results reported in paper PMC8003416, “Modulation of Human Phenylalanine Hydroxylase by 3-Hydroxyquinolin-2(1H)-One Derivatives” (Biomolecules, 2021).

Biological target: the molecule itself
Assay: SEC; HiLoad Superdex 200 HR column (1.6 x 60 cm), 20 mM Na-HEPES, 200 mM NaCl, pH 7.0, 0.7 mL/min, 4 °C; preparative isolation of the oligomeric form after affinity purification

B1: MBP-FXa-hPAH-RD^1–120 (N-terminal regulatory domain of human phenylalanine hydroxylase fused to maltose binding protein) (domain or fragment, UniProt P00439 1-120, looked up)
chain: MSTAVLENPGLGRKLSDFGQETSYIEDNCNQNGAISLIFSLKEEVGALAKVLRLFEENDVNLTHIESRPSRLKKDEYEFFTHLDKRSLPALTNIIKILRHDIGATVHELSRDKKKDTVPW
notes: human phenylalanine hydroxylase, N-terminal regulatory domain, amino acids 1-120; The fusion is about 53 kDa; also called MBP-FXa-hPAH-RD^1–120 fusion protein; dimeric MBP-FXa-hPAH-RD^1–120; source: E. coli TB1, purified (amylose resin, then SEC to isolate dimers); not shown: MBP, N-terminal, kept
stoichiometry N: 2
